One molecule from article PMC6494882, “Inhibition of MYC by the SMARCB1 tumor suppressor” can be followed below.

The target of the data set is MAX:MAX (UniProt P61244 1-160). The experiment in a line: EMSA; no SNF5; 15 mM Tris-HCl pH 7.9, 15% glycerol, 100 mM KCl, 0.15 mM EDTA, 0.075% NP-40, 7.5 mM 2-mercaptoethanol, 40 ng poly(dI-dC), 375 ng/ul BSA, 25 fmol probe, 10-15 ul, 30 min, room temperature; SUMO-BAF155(533-580) added to equalize total protein in SNF5 experiments. Particulars: protein: recombinant; tags: 6xHis; chain copies: 2; label: 3'-biotin. In general terms: Mobility shift assays separate free from complexed probe on a gel.
Chain of MAX:MAX (P61244 whole entry): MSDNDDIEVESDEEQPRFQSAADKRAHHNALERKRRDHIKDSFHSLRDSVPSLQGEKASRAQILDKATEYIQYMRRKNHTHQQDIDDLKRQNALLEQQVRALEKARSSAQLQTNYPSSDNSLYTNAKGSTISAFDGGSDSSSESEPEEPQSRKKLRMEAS

B1: wild-type E-box probe (dsDNA)
DNA 1: GCTCAGGGACCACGTGGTCGGGGATC
DNA 2: GATCCCCGACCACGTGGTCCCTGAGC
Regarding B1, the binding result was “binds”.
